This test concerns the target Snapin, endogenous, in LNCaP cells (human) (UniProt O95295). The test can be described thus: cell-based or functional assay.

Our source for the Pearson's correlation coefficient of co-localization (double immunofluorescence, cell lamellipodia only) and Pearson's correlation coefficient of co-localization (double immunofluorescence, whole cell) values is US20130108609A1.

UniProt O95295, sequence (O95295 2-136): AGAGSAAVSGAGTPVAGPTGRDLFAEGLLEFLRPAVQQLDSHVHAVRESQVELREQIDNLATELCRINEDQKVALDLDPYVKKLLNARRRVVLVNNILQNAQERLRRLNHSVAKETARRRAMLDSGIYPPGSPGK

“human TMPAP stably expressed in LNCaP cells (LNCaP pMX TMPAP) (enzyme)” had a Pearson's correlation coefficient of co-localization (double immunofluorescence, cell lamellipodia only) of 0.68 and a Pearson's correlation coefficient of co-localization (double immunofluorescence, whole cell) of 0.485.
